The values that follow come from paper PMC3596305, “Escherichia coli NemA Is an Efficient Chromate Reductase That Can Be Biologically Immobilized to Provide a Cell Free System for Remediation of Hexavalent Chromium” (PLoS ONE, 2013).

This data set has as its system [O]=[Cr](=[O])([OH])[OH]. The data set can be described thus: purified protein. The following applies: 1 mM NADH, 50 mM Tris-Cl pH 7.0, 22°C.
For “ChrR_St (Salmonella enterica subsp. enterica serovar Typhi)”, the Km came out at 37 ± 2 µM, the kcat was 0.031 s⁻¹ and the kcat/Km was 830 M⁻¹ s⁻¹.

“NfsA_St (Salmonella enterica subsp. enterica serovar Typhi)”: the Km stood at 180 µM, the kcat came to 0.02 s⁻¹ and the specificity constant (kcat/Km) turned out to be 140 M⁻¹ s⁻¹.

With “NfsB_St (Salmonella enterica subsp. enterica serovar Typhi)”, the Km is 320 ± 120 µM, the kcat came out at 0.54 s⁻¹ and the kcat/Km was determined as 1700 M⁻¹ s⁻¹.

For orientation: Km means the substrate concentration at which the rate is half of its maximum. The term kcat denotes the number of substrate molecules converted per active site and unit of time at saturation. The kcat/Km is the turnover number divided by the Michaelis constant.
